Measured values: IntAct's records for PubMed 31515488

B1: Protein PALS1 (Homo sapiens), Q8N3R9 (parent)
chain: MTTSHMNGHVTEESDSEVKNVDLASPEEHQKHREMAVDCPGDLGTRMMPIRRSAQLERIRQQQEDMRRRREEEGKKQELDLNSSMRLKKLAQIPPKTGIDNPMFDTEEGIVLESPHYAVKILEIEDLFSSLKHIQHTLVDSQSQEDISLLLQLVQNKDFQNAFKIHNAITVHMNKASPPFPLISNAQDLAQEVQTVLKPVHHKEGQELTALLNTPHIQALLLAHDKVAEQEMQLEPITDERVYESIGQYGGETVKIVRIEKARDIPLGATVRNEMDSVIISRIVKGGAAEKSGLLHEGDEVLEINGIEIRGKDVNEVFDLLSDMHGTLTFVLIPSQQIKPPPAKETVIHVKAHFDYDPSDDPYVPCRELGLSFQKGDILHVISQEDPNWWQAYREGDEDNQPLAGLVPGKSFQQQREAMKQTIEEDKEPEKSGKLWCAKKNKKKRKKVLYNANKNDDYDNEEILTYEEMSLYHQPANRKRPIILIGPQNCGQNELRQRLMNKEKDRFASAVPHTTRSRRDQEVAGRDYHFVSRQAFEADIAAGKFIEHGEFEKNLYGTSIDSVRQVINSGKICLLSLRTQSLKTLRNSDLKPYIIFIAPPSQERLRALLAKEGKNPKPEELREIIEKTREMEQNNGHYFDTAIVNSDLDKAYQELLRLINKLDTEPQWVPSTWLR
partner: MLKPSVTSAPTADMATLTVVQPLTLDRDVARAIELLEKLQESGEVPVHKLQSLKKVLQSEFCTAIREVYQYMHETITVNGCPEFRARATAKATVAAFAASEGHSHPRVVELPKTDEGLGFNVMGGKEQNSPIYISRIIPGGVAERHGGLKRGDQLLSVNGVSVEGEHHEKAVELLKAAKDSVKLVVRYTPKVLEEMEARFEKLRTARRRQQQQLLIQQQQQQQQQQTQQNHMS
B2: Notch homolog 2 N-terminal-like protein A (Homo sapiens), Q7Z3S9 (parent)
chain: MCVTYHNGTGYCKCPEGFLGEYCQHRDPCEKNRCQNGGTCVAQAMLGKATCRCASGFTGEDCQYSTSHPCFVSRPCLNGGTCHMLSRDTYECTCQVGFTGKECQWTDACLSHPCANGSTCTTVANQFSCKCLTGFTGQKCETDVNECDIPGHCQHGGTCLNLPGSYQCQCLQGFTGQYCDSLYVPCAPSPCVNGGTCRQTGDFTFECNCLPETVRRGTELWERDREVWNGKEHDEN
partner: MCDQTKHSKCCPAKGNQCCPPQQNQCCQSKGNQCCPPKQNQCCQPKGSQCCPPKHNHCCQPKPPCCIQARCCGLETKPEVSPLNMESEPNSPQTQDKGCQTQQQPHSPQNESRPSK
B3: Fructose-1,6-bisphosphatase isozyme 2 (Homo sapiens), O00757 (parent)
chain: MTDRSPFETDMLTLTRYVMEKGRQAKGTGELTQLLNSMLTAIKAISSAVRKAGLAHLYGIAGSVNVTGDEVKKLDVLSNSLVINMVQSSYSTCVLVSEENKDAIITAKEKRGKYVVCFDPLDGSSNIDCLASIGTIFAIYRKTSEDEPSEKDALQCGRNIVAAGYALYGSATLVALSTGQGVDLFMLDPALGEFVLVEKDVKIKKKGKIYSLNEGYAKYFDAATTEYVQKKKFPEDGSAPYGARYVGSMVADVHRTLVYGGIFLYPANQKSPKGKLRLLYECNPVAYIIEQAGGLATTGTQPVLDVKPEAIHQRVPLILGSPEDVQEYLTCVQKNQAGS
B4: Ornithine decarboxylase antizyme 3 (Homo sapiens), Q9UMX2 (parent)
chain: MPCKRCRPSVYSLSYIKRGKTRNYLYPIWSPYAYYLYCYKYRITLREKMLPRCYKSITYKEEEDLTLQPRSCLQCSESLVGLQEGKSTEQGNHDQLKELYSAGNLTVLATDPLLHQDPVQLDFHFRLTSQTSAHWHGLLCDRRLFLDIPYQALDQGNRESLTATLEYVEEKTNVDSVFVNFQNDRNDRGALLRAFSYMGFEVVRPDHPALPPLDNVIFMVYPLERDVGHLPSEPP
B5: Alpha-taxilin (Homo sapiens), P40222 (parent)
chain: MKNQDKKNGAAKQSNPKSSPGQPEAGPEGAQERPSQAAPAVEAEGPGSSQAPRKPEGAQARTAQSGALRDVSEELSRQLEDILSTYCVDNNQGGPGEDGAQGEPAEPEDAEKSRTYVARNGEPEPTPVVNGEKEPSKGDPNTEEIRQSDEVGDRDHRRPQEKKKAKGLGKEITLLMQTLNTLSTPEEKLAALCKKYAELLEEHRNSQKQMKLLQKKQSQLVQEKDHLRGEHSKAVLARSKLESLCRELQRHNRSLKEEGVQRAREEEEKRKEVTSHFQVTLNDIQLQMEQHNERNSKLRQENMELAERLKKLIEQYELREEHIDKVFKHKDLQQQLVDAKLQQAQEMLKEAEERHQREKDFLLKEAVESQRMCELMKQQETHLKQQLALYTEKFEEFQNTLSKSSEVFTTFKQEMEKMTKKIKKLEKETTMYRSRWESSNKALLEMAEEKTVRDKELEGLQVKIQRLEKLCRALQTERNDLNKRVQDLSAGGQGSLTDSGPERRPEGPGAQAPSSPRVTEAPCYPGAPSTEASGQTGPQEPTSARA
partner: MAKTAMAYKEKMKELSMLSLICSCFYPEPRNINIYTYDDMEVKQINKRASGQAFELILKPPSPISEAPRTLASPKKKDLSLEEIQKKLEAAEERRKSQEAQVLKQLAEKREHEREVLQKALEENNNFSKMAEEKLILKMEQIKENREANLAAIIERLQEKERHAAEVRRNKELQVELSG
B6: Alpha-ketoglutarate-dependent dioxygenase alkB homolog 4 (Homo sapiens), Q9NXW9 (parent)
chain: MAAAAAETPEVLRECGCKGIRTCLICERQRGSDPPWELPPAKTYRFIYCSDTGWAVGTEESDFEGWAFPFPGVMLIEDFVTREEEAELVRLMDRDPWKLSQSGRRKQDYGPKVNFRKQKLKTEGFCGLPSFSREVVRRMGLYPGLEGFRPVEQCNLDYCPERGSAIDPHLDDAWLWGERLVSLNLLSPTVLSMCREAPGSLLLCSAPSAAPEALVDSVIAPSRSVLCQEVEVAIPLPARSLLVLTGAARHQWKHAIHRRHIEARRVCVTFRELSAEFGPGGRQQELGQELLRIALSFQGRPV
partner: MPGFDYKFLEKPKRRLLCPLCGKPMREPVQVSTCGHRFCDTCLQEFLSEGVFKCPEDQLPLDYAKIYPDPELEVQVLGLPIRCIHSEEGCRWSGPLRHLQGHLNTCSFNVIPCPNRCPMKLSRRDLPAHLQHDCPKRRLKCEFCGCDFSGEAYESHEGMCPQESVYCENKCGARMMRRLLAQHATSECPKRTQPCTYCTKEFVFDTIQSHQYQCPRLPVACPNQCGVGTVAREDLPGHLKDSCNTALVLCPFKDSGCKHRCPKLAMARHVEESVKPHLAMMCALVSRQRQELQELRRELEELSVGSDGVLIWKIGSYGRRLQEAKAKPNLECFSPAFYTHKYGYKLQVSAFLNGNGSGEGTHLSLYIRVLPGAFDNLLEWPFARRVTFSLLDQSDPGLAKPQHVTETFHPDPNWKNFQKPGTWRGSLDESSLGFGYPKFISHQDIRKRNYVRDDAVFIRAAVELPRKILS
B7: KAT8 regulatory NSL complex subunit 1 (Homo sapiens), Q7Z3B3 (parent)
chain: MAAMAPALTDAAAEAHHIRFKLAPPSSTLSPGSAENNGNANILIAANGTKRKAIAAEDPSLDFRNNPTKEDLGKLQPLVASYLCSDVTSVPSKESLKLQGVFSKQTVLKSHPLLSQSYELRAELLGRQPVLEFSLENLRTMNTSGQTALPQAPVNGLAKKLTKSSTHSDHDNSTSLNGGKRALTSSALHGGEMGGSESGDLKGGMTNCTLPHRSLDVEHTTLYSNNSTANKSSVNSMEQPALQGSSRLSPGTDSSSNLGGVKLEGKKSPLSSILFSALDSDTRITALLRRQADIESRARRLQKRLQVVQAKQVERHIQHQLGGFLEKTLSKLPNLESLRPRSQLMLTRKAEAALRKAASETTTSEGLSNFLKSNSISEELERFTASGIANLRCSEQAFDSDVTDSSSGGESDIEEEELTRADPEQRHVPLRRRSEWKWAADRAAIVSRWNWLQAHVSDLEYRIRQQTDIYKQIRANKGLIVLGEVPPPEHTTDLFLPLSSEVKTDHGTDKLIESVSQPLENHGAPIIGHISESLSTKSCGALRPVNGVINTLQPVLADHIPGDSSDAEEQLHKKQRLNLVSSSSDGTCVAARTRPVLSCKKRRLVRPNSIVPLSKKVHRNSTIRPGCDVNPSCALCGSGSINTMPPEIHYEAPLLERLSQLDSCVHPVLAFPDDVPTSLHFQSMLKSQWQNKPFDKIKPPKKLSLKHRAPMPGSLPDSARKDRHKLVSSFLTTAKLSHHQTRPDRTHRQHLDDVGAVPMVERVTAPKAERLLNPPPPVHDPNHSKMRLRDHSSERSEVLKHHTDMSSSSYLAATHHPPHSPLVRQLSTSSDSPAPASSSSQVTASTSQQPVRRRRGESSFDINNIVIPMSVAATTRVEKLQYKEILTPSWREVDLQSLKGSPDEENEEIEDLSDAAFAALHAKCEEMERARWLWTTSVPPQRRGSRSYRSSDGRTTPQLGSANPSTPQPASPDVSSSHSLSEYSHGQSPRSPISPELHSAPLTPVARDTPRHLASEDTRCSTPELGLDEQSVQPWERRTFPLAHSPQAECEDQLDAQERAARCTRRTSGSKTGRETEAAPTSPPIVPLKSRHLVAAATAQRPTHR

Variants of: B1
Settings: with lin7a_human LIN7A

Variant	effect of a mutation on the interaction
S141Y	with no effect

Variants of: B2
Settings: with mcsp_human SMCP

Variant	effect of a mutation on the interaction
R74Q	with no effect
A115T	with no effect

Variants of: B3
Settings: with FBP1, P09467
FBP1, P09467, sequence (P09467 whole entry): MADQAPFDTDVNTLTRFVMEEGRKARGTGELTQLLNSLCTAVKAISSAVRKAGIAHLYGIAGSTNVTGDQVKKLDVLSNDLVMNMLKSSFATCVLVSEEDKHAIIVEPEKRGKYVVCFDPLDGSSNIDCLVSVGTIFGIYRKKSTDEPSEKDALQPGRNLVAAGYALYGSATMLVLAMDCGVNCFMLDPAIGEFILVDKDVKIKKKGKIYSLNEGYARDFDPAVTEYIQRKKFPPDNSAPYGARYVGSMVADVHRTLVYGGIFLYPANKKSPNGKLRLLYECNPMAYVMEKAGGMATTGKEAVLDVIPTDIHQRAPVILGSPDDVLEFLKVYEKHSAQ

Variant	effect of a mutation on the interaction
Y216C	with no effect

Variants of: B4
Settings: with azin1_human AZIN1, O14977
azin1_human AZIN1, O14977, sequence (O14977 whole entry): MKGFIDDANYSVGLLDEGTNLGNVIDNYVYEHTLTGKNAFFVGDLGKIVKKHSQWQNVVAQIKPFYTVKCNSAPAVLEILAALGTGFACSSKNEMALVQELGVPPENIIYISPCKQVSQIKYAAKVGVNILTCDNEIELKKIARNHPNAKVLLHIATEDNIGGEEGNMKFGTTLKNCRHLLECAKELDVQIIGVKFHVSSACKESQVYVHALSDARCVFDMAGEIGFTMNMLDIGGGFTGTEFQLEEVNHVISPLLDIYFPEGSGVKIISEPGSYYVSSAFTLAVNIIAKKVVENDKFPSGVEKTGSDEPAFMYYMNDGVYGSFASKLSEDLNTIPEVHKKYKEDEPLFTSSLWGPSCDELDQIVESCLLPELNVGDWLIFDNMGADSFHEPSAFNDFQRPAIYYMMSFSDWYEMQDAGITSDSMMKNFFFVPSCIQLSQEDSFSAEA

Variant	effect of a mutation on the interaction
V174A	with no effect
R193Q	with no effect

Variants of: B5
Settings: with stmn2_human STMN2, Q93045

Variant	effect of a mutation on the interaction
S514R	with no effect
P541S	with no effect

Variants of: B6
Settings: with traf4_human TRAF4, Q9BUZ4

Variant	effect of a mutation on the interaction
R239C	disrupting interaction strength

Variants of: B7
Settings: with cdr2_human CDR2, Q01850
cdr2_human CDR2, Q01850, sequence (Q01850 whole entry): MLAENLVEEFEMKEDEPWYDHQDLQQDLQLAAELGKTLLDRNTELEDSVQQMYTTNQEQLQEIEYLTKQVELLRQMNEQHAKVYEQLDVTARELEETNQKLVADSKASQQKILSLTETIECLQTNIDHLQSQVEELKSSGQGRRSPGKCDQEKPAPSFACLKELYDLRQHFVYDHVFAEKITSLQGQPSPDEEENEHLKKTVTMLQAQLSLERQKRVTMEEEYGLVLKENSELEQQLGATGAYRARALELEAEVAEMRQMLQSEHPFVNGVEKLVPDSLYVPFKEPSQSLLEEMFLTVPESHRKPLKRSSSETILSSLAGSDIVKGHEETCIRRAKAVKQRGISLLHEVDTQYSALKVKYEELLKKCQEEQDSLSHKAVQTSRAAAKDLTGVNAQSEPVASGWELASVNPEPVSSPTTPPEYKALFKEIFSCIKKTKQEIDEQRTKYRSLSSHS

Variant	effect of a mutation on the interaction
K104T	with no effect

Variants of: B7
Settings: with traf2_human TRAF2, Q12933
traf2_human TRAF2, Q12933, sequence (Q12933 whole entry): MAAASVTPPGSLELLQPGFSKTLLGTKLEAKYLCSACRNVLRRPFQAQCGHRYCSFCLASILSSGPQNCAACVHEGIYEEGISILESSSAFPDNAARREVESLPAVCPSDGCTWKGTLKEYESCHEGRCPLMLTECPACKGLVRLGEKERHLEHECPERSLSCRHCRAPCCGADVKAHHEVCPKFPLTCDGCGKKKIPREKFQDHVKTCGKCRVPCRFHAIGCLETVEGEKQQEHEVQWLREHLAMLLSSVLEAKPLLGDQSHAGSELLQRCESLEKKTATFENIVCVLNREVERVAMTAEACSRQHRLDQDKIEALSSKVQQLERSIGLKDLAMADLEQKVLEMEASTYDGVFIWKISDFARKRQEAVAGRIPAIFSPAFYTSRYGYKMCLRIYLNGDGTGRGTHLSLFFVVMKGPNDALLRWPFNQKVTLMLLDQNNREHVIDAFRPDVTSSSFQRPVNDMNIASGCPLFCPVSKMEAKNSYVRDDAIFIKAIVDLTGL

Variant	effect of a mutation on the interaction
K104T	with no effect

Variants of: B7
Settings: with KRT15, P19012
KRT15, P19012, sequence (P19012 whole entry): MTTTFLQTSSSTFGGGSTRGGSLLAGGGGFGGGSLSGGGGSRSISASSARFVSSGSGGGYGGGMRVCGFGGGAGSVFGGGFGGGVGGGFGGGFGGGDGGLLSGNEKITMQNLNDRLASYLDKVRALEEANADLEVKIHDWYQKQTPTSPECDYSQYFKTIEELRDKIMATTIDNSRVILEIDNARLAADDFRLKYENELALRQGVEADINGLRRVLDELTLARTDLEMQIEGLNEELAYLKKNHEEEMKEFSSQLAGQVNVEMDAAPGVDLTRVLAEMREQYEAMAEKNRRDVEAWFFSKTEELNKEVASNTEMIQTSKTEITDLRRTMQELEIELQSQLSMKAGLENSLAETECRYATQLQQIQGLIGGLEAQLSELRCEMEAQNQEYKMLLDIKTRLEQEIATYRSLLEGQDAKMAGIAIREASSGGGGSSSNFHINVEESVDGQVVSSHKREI

Variant	effect of a mutation on the interaction
K104T	with no effect
